Test results as given in patent US20230055005A1 (ROCHE DIAGNOSTICS OPERATIONS, published 2023).
Numbering of substitutions follows the chain as printed. Bridge positions count the residues as written; N and C are the ends. Square brackets hold non-standard residues; d marks the D form. Primed or numbered codes have the meaning given here. Glu(Bi-PEG)″ = Nδ-(N-biotinyl-3-(2-(2-(3-aminopropyloxy)-ethoxy)-ethoxypropyl)-L-glutamine, biotin-PEG linker residue; Glu(Bi-PEG) = N-terminal added Glu carrying a biotin-linker; Glu(Bi-PEG)(3) = N-terminal added Glu biotin-linker residue; Gla = N[C@@H](CC(C(=O)O)C(=O)O)C(=O)O

T1: Bi-SEQ ID NO: 1, *H**Glu(Bi-PEG)*NLERECVEETCSYEEA*NH2 (disulfide 6-11 (inferred))
T1 construct: Synthetic peptide
T1 peptide: {Glu(Bi-PEG)}-NLERECVEETCSYEEA-NH2

T2: Bi-SEQ ID NO: 4, *H**Glu(Bi-PEG)*…laTCSYEEA*NH2 (disulfide 6-11)
T2 construct: Synthetic peptide; 12-27 of mature prothrombin with Gla at 20
T2 peptide: {Glu(Bi-PEG)(3)}-NLERECVE[Gla]TCSYEEA-NH2

T3: Bi-SEQ ID NO: 3, *H**Glu(Bi-PEG)*…laEA*NH2 (disulfide 6-11; not fully specified)
T3 construct: Synthetic peptide; 12-27 of mature prothrombin with Gla at 25
T3 peptide: {Glu(Bi-PEG)″}-NLERECVEETCSY[Gla]EA-NH2

B1: monoclonal anti-PIVKA-II antibody 9A6 (antibody, V domains shown)
VH: QSVEESGGRLITPGTPLTLTCTVSGFDLSRYAVGWVRQAPGKGLEYIGLIVSDGRTYYASWAKGRFTVSKTSSTTVDLKMTSPTAGDTATYYCYRNVSLWGQGTLVSVSS
VL: DVVMTQTPSSVEAAVGGTVTIKCQASQSIGSNLAWYQQKPGQPPKLLIYSASTLASGVPSRFSGSGSGTEFTLTFSGVQCGDAATYFCQSYAGVSANIFYYSFGGGTEVVVM
notes: Recombinant rabbit IgG from B-cell cloning, expressed in HEK cells
B2: monoclonal anti-PIVKA-II antibody 4E8 (antibody, V domains shown)
VH: B1 VH with I11V, V51T, S60N, A85T, G86E
VL: B1 VL with S9A, P40S, S56P, P59S, S76T
notes: as for B1
B3: monoclonal anti-PIVKA-II antibody 13H7 (antibody, V domains shown)
VH: B1 VH with I11V, G14E, V33M, V68I, T81A, A85T, G86E, S110E
VL: B1 VL with P59S, S63K, F75I, G77D, V78L, Q79E, G81A, F87Y, V94I, S102A
notes: as for B1
B4: monoclonal anti-PIVKA-II antibody 7A10 (antibody, V domains shown)
VH: QSLEESGGRLVTPGTPLTLTCTVSGIDLSTYAMGWVRQAPGKGLEYIGIIRSSGRTYYASWAKGRFTVSKTSSTTVDLSMTSPTTEDTATYYCYRNVSLWGQGTLVSVSS
VL: DVVMTQTPSSVEAAVGGTVTIKCQASQSIGNNLAWYQQKPGQRPNLLIYSASTLASGVPSRFRGSGSGTEFTLTISGVQCDDAATYYCQSYAGVSESVFWYSFGGGTGVVVK
notes: as for B1

molecular target: Bi-SEQ ID NO: 2, *H**Glu(Bi-PEG)*NLERECVGlaETCSYEEA*NH2; experiment: ECL assay (Elecsys 2010), ruthenylated antibody and biotinylated peptide, streptavidin beads

Row | reactivity (signal normalized to Bi-SEQ ID NO:1) [%] | Binder
1 | 5 | B1
2 | 5 | B2
3 | 5 | B3
4 | 4 | B4

Molecular target: T1, Bi-SEQ ID NO: 1, …
Experiment: as above
Protocol: (§1) An Elecsys 2010 immunoanalyzer was used to determine the reactivity of selected anti-PIVKA-II antibodies with the above peptide as follows:
(§2) 50 μL of ruthenylated anti-PIVKA-II antibody (300 ng/mL in assay buffer—s. example 2.4) were reacted with 50 μL of biotinylated peptide (2.5 ng/mL in assay buffer) and 70 μL assay-buffer in a first step, and incubated at 37° C. for 9 min. After addition of 30 μL streptavidin coated paramagnetic Elecsys® beads (0.7 mg/mL; see example 2.4) and a second incubation step (37° C., 9 min), the reaction mixture was aspirated into the measuring cell where the microparticles are magnetically captured onto the surface of the measuring-electrode. Unbound substances are removed with ProCell system-buffer (Roche Diagnostics GmbH, Germany). Application of a voltage to the electrode then induces electrochemiluminescense-based emission of light which is measured by a photomultiplier.

Row | reactivity (signal normalized to Bi-SEQ ID NO:1) [%] | Binder
5 | 100 | B1
6 | 100 | B2
7 | 100 | B3
8 | 100 | B4

Molecular target: T2, Bi-SEQ ID NO: 4, …
Experiment: as above
Protocol: as §1, §2

Row | reactivity (signal normalized to Bi-SEQ ID NO:1) [%] | Binder
9 | 78 | B1
10 | 76 | B2
11 | 68 | B3
12 | 68 | B4

Molecular target: T3, Bi-SEQ ID NO: 3, …
Experiment: as above
Protocol: as §1, §2

Row | reactivity (signal normalized to Bi-SEQ ID NO:1) [%] | Binder
13 | 107 | B1
14 | 108 | B2
15 | 107 | B3
16 | 105 | B4
